Data taken from PMC8914513.
One block for each substance: values may come before it.

Assays:
[1] = biological target: serine hydroxymethyltransferase, cytosolic (SHMT1), His-tagged, immobilised in QCM-D (UniProt P34896); assay: QCM-D (quartz crystal microbalance with dissipation monitoring); two proteins: 5 uM His-tagged SHMT immobilised on His-tag capturing sensor QSX340; tagless ligand introduced (0.1-1.0 uM or 0.5-7.0 uM for TS, pTS or DHFR); 20 mM Tris-HCl pH 7.6, 100 mM (salt not given), 10 mM MgCl2, 0.05% Tween 20, 25 C, 200 ul/min; Langmuir isotherm fit
[2] = biological target: CK2alpha-phosphorylated thymidylate synthase fraction (pTS), as used in MST (human) (UniProt P04818); assay: MST; two proteins in solution, Premium capillaries: labeled DHFR with SHMT 157 uM-4.79 nM; labeled SHMT with TS 62.0 uM-1.9 nM; labeled pTS with SHMT 157 uM-4.79 nM; Kd model fit
[3] = biological target: DHFR (Homo sapiens) (UniProt P00374); assay: QCM-D; conditions: cited from earlier work
[4] = biological target: DHFR (Homo sapiens) (UniProt P00374); assay: MST; conditions: cited from earlier work

DHFR (Homo sapiens), sequence (P00374 whole entry): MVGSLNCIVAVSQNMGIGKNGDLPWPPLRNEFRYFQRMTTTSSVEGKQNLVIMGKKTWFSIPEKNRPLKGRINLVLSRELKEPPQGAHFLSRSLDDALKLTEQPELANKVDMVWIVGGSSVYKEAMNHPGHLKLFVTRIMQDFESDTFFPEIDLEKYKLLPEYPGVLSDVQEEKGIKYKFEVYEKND
thymidylate synthase, sequence (P04818 2-313): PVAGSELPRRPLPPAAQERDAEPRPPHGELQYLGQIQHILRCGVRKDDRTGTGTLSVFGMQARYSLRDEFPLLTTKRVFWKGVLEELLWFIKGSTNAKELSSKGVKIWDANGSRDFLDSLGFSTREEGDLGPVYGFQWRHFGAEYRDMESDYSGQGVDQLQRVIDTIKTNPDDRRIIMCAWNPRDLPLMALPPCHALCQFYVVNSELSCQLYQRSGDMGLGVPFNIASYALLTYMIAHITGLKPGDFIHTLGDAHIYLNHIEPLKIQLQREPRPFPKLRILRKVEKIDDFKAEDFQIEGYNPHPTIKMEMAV
serine hydroxymethyltransferase, cytosolic (SHMT1), His-tagged, immobilised in QCM-D, sequence (P34896 whole entry): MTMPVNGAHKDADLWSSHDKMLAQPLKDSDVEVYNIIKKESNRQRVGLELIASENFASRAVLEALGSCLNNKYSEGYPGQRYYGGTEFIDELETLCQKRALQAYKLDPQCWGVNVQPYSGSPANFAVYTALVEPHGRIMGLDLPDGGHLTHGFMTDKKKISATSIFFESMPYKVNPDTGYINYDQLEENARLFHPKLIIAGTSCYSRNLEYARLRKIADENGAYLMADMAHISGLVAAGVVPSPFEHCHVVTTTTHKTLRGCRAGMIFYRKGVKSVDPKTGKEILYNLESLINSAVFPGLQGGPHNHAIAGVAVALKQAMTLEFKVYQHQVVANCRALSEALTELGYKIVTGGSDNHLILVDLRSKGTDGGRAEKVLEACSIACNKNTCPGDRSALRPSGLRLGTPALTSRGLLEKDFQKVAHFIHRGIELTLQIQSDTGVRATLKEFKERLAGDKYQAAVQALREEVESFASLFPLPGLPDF
CK2alpha-phosphorylated thymidylate synthase fraction (pTS), as used in MST (human), sequence (P04818 whole entry): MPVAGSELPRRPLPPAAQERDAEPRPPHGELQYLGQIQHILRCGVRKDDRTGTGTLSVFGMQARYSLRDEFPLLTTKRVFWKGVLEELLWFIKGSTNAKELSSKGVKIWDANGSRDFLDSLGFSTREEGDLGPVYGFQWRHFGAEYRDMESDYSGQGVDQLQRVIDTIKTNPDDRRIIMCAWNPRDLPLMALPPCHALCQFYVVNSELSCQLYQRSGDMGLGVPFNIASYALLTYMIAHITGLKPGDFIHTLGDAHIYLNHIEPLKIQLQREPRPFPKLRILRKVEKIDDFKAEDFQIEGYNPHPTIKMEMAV

Kd [1]: 5.35 µM
Substance: CK2alpha-phosphorylated thymidylate synthase fraction (pTS), tagless ligand in QCM-D (from UniProt P04818 1-313) (enzyme)

Kd [2]: 0.219 µM
Substance: serine hydroxymethyltransferase, cytosolic (SHMT1), as used in MST (from UniProt P34896 1-483) (enzyme)

Substance: thymidylate synthase (from UniProt P04818)
Kd [3]: 7.6 µM
Kd [4]: 2.8 µM
